Reference: patent publication US20080102072A1

Assays:
[1] = molecular target: human IFNAR1, membrane receptor on cells (U266 human myeloma cells; Hela and A549 cells in the functional assays) (human) (UniProt P17181); assay: cell-based or functional assay
[2] = molecular target: human IFNAR1, membrane receptor on cells (U266 human myeloma cells; Hela and A549 cells in the functional assays) (human) (UniProt P17181); assay: flow cytometry on U266 cells, fluoresceinated mAb 1 µg/100 µl, no soluble hIFNAR1
[3] = molecular target: human IFNAR1, membrane receptor on cells (U266 human myeloma cells; Hela and A549 cells in the functional assays) (human) (UniProt P17181); assay: flow cytometry on U266 cells, F-mAb preincubated with competitor: 10 µg soluble wild type hIFNAR1-IgG
[4] = molecular target: hIFNAR1 ECD-IgG fusion protein (immunoadhesin, pRK5 hIFNAR1-IgG clone 53.65), wild type (human); assay: competitive radioimmunoprecipitation with 125I-hIFNAR1-IgG and unlabeled hIFNAR1-IgG, Scatchard analysis
Sequence of hIFNAR1 ECD-IgG fusion protein (immunoadhesin, pRK5 hIFNAR1-IgG clone 53.65), wild type (human) (chain, as listed by the source limits assumed): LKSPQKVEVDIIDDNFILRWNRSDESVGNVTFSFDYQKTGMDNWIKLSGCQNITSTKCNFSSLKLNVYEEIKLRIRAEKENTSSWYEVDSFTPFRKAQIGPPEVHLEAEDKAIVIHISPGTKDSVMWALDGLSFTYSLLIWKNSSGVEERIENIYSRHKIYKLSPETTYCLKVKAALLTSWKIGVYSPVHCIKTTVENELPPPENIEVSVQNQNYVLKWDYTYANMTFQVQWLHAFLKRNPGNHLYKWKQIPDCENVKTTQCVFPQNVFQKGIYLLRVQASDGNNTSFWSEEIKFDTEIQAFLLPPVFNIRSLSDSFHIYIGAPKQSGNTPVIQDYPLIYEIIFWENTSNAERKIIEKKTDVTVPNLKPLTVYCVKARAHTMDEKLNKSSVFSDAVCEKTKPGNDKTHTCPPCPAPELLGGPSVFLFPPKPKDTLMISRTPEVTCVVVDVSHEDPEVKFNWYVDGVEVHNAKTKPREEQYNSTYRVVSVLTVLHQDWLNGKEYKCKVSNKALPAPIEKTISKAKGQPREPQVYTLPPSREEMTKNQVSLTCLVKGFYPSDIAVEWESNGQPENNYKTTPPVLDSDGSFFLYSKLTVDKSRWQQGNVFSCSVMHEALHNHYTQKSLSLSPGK

[5] = molecular target: IFNAR1-IgG multiple alanine mutant 1, residues 19-25 (RWNRSDE to AWNASAA) (human); assay: capture ELISA, mutant IFNAR1-IgG captured by goat anti-hIgG-Fc, mAb 10 µg/ml; OD as % of wild type IFNAR1-IgG
[6] = molecular target: IFNAR1-IgG multiple alanine mutant 10, residues 383-388 (DEKLNK to AAALNA) (human); assay: as above
[7] = molecular target: IFNAR1-IgG multiple alanine mutant 2, residues 69-74 (EEIKLR to AAIALA) (human); assay: as above
Sequence of IFNAR1-IgG multiple alanine mutant 2, residues 69-74 (EEIKLR to AAIALA) (human) (chain, as listed by the source mutant limits assumed): as the sequence (chain, as listed by the source limits assumed) above, with E69A, E70A, K72A, R74A counted along it

[8] = molecular target: IFNAR1-IgG multiple alanine mutant 3, residues 76-80 (RAEKE to AAAAA) (human); assay: as above
[9] = molecular target: IFNAR1-IgG multiple alanine mutant 4, residues 103-111 (… to …) (human); assay: as above
[10] = molecular target: IFNAR1-IgG multiple alanine mutant 5, residues 148-152 (EERIE to AAAIA) (human); assay: as above
Sequence of IFNAR1-IgG multiple alanine mutant 5, residues 148-152 (EERIE to AAAIA) (human) (chain, as listed by the source mutant limits assumed): as the sequence (chain, as listed by the source limits assumed) above, with E148A, E149A, R150A, E152A counted along it

[11] = molecular target: IFNAR1-IgG multiple alanine mutant 6, residues 157-162 (RHKIYK to AAAIYA) (human); assay: as above
[12] = molecular target: IFNAR1-IgG multiple alanine mutant 7, residues 244-249 (HLYKWK to ALYAWA) (human); assay: as above
[13] = molecular target: IFNAR1-IgG multiple alanine mutant 8, residues 291-298 (EEIKFDTE to AAIAFATA) (human); assay: as above
[14] = molecular target: IFNAR1-IgG multiple alanine mutant 9, residues 352-359 (ERKIIEKK to AAAIIAAA) (human); assay: as above
[15] = molecular target: IFNAR1-IgG single alanine mutant D296A (human); assay: capture ELISA, single alanine mutant IFNAR1-IgG captured by goat anti-hIgG-Fc; OD as % of wild type IFNAR1-IgG
Sequence of IFNAR1-IgG single alanine mutant D296A (human) (chain, as listed by the source D296A D296A limits assumed): as the sequence (chain, as listed by the source limits assumed) above, with D296A counted along it

[16] = molecular target: IFNAR1-IgG single alanine mutant E291A (human); assay: as above
Sequence of IFNAR1-IgG single alanine mutant E291A (human) (chain, as listed by the source E291A E291A limits assumed): as the sequence (chain, as listed by the source limits assumed) above, with E291A counted along it

[17] = molecular target: IFNAR1-IgG single alanine mutant E292A (human); assay: as above
[18] = molecular target: IFNAR1-IgG single alanine mutant E298A (human); assay: as above
Sequence of IFNAR1-IgG single alanine mutant E298A (human) (chain, as listed by the source E298A E298A limits assumed): as the sequence (chain, as listed by the source limits assumed) above, with E298A counted along it

[19] = molecular target: IFNAR1-IgG single alanine mutant E69A (human); assay: as above
[20] = molecular target: IFNAR1-IgG single alanine mutant E70A (human); assay: as above
Sequence of IFNAR1-IgG single alanine mutant E70A (human) (chain, as listed by the source E70A E70A limits assumed): as the sequence (chain, as listed by the source limits assumed) above, with E70A counted along it

[21] = molecular target: IFNAR1-IgG single alanine mutant H244A (human); assay: as above
[22] = molecular target: IFNAR1-IgG single alanine mutant K247A (human); assay: as above
[23] = molecular target: IFNAR1-IgG single alanine mutant K249A (human); assay: as above
[24] = molecular target: IFNAR1-IgG single alanine mutant K294A (human); assay: as above
[25] = molecular target: IFNAR1-IgG single alanine mutant K72A (human); assay: as above
Sequence of IFNAR1-IgG single alanine mutant K72A (human) (chain, as listed by the source K72A K72A limits assumed): as the sequence (chain, as listed by the source limits assumed) above, with K72A counted along it

[26] = molecular target: IFNAR1-IgG single alanine mutant R74A (human); assay: as above
[27] = molecular target: human IFNAR1, membrane receptor on cells (U266 human myeloma cells; Hela and A549 cells in the functional assays) (human) (UniProt P17181); assay: flow cytometry on U266 cells, F-mAb preincubated with competitor: 10 µg soluble hIFNAR1-IgG Mutant #7 (244-249)
[28] = molecular target: human IFNAR1, membrane receptor on cells (U266 human myeloma cells; Hela and A549 cells in the functional assays) (human) (UniProt P17181); assay: flow cytometry on U266 cells, F-mAb preincubated with competitor: 10 µg soluble hIFNAR1-IgG Mutant #8 (291-298)

## anti-hIFNAR1 monoclonal antibody 2E1 (hybridoma ATCC HB 12133)
[1]
  EC50 of mAb neutralizing the anti-viral cytopathic effect of 10 units/ml IFNα1 on A549 cells (EMC virus): 3 µg/mL
  EC50 of mAb neutralizing the anti-viral cytopathic effect of 10 units/ml IFNα2/1 on A549 cells (EMC virus): 3 µg/mL
  EC50 of mAb neutralizing the anti-viral cytopathic effect of 10 units/ml IFNα2 on A549 cells (EMC virus): 1 µg/mL
  EC50 of mAb neutralizing the anti-viral cytopathic effect of 10 units/ml IFNα5 on A549 cells (EMC virus): 1 µg/mL
  EC50 of mAb neutralizing the anti-viral cytopathic effect of 10 units/ml IFNα8 on A549 cells (EMC virus): 1 µg/mL
  EC50 of mAb neutralizing the anti-viral cytopathic effect of 10 units/ml IFNβ on A549 cells (EMC virus): > 30 µg/mL
[2]
  Mean Fluorescence Intensity: 7.6
[3]
  Mean Fluorescence Intensity: 2.83
[4]
  Kd: 0.066 nM
[5]
  % Wild type binding of mAbs: 101%
[6]
  % Wild type binding of mAbs: 105%
[7]
  % Wild type binding of mAbs: 21%
[8]
  % Wild type binding of mAbs: 97%
[9]
  % Wild type binding of mAbs: 66%
[10]
  % Wild type binding of mAbs: 87%
[11]
  % Wild type binding of mAbs: 84%
[12]
  % Wild type binding of mAbs: 0%
[13]
  % Wild type binding of mAbs: 6%
[14]
  % Wild type binding of mAbs: 105%
[15]
  % Wild type binding of mAbs: 5%
[16]
  % Wild type binding of mAbs: 7%
[17]
  % Wild type binding of mAbs: 34%
[18]
  % Wild type binding of mAbs: 36%
[19]
  % Wild type binding of mAbs: 72%
[20]
  % Wild type binding of mAbs: 81%
[21]
  % Wild type binding of mAbs: 92%
[22]
  % Wild type binding of mAbs: 74%
[23]
  % Wild type binding of mAbs: 5%
[24]
  % Wild type binding of mAbs: 54%
[25]
  % Wild type binding of mAbs: 90%
[26]
  % Wild type binding of mAbs: 57%
[27]
  Mean Fluorescence Intensity: 7.82
[28]
  Mean Fluorescence Intensity: 7.65

## anti-hIFNAR1 monoclonal antibody 2H6 (hybridoma ATCC HB 12131)
[1]
  EC50 of mAb neutralizing the anti-viral cytopathic effect of 10 units/ml IFNα1 on A549 cells (EMC virus): > 30 µg/mL
  EC50 of mAb neutralizing the anti-viral cytopathic effect of 10 units/ml IFNα2/1 on A549 cells (EMC virus): > 30 µg/mL
  EC50 of mAb neutralizing the anti-viral cytopathic effect of 10 units/ml IFNα2 on A549 cells (EMC virus): > 30 µg/mL
  EC50 of mAb neutralizing the anti-viral cytopathic effect of 10 units/ml IFNα5 on A549 cells (EMC virus): > 30 µg/mL
  EC50 of mAb neutralizing the anti-viral cytopathic effect of 10 units/ml IFNα8 on A549 cells (EMC virus): > 30 µg/mL
  EC50 of mAb neutralizing the anti-viral cytopathic effect of 10 units/ml IFNβ on A549 cells (EMC virus): > 30 µg/mL
[4]
  Kd: 3.12 nM
[5]
  % Wild type binding of mAbs: 77%
[6]
  % Wild type binding of mAbs: 93%
[7]
  % Wild type binding of mAbs: 0%
[8]
  % Wild type binding of mAbs: 48%
[9]
  % Wild type binding of mAbs: 39%
[10]
  % Wild type binding of mAbs: 68%
[11]
  % Wild type binding of mAbs: 90%
[12]
  % Wild type binding of mAbs: 105%
[13]
  % Wild type binding of mAbs: 64%
[14]
  % Wild type binding of mAbs: 101%
[15]
  % Wild type binding of mAbs: 49%
[16]
  % Wild type binding of mAbs: 49%
[17]
  % Wild type binding of mAbs: 55%
[18]
  % Wild type binding of mAbs: 53%
[19]
  % Wild type binding of mAbs: 64%
[20]
  % Wild type binding of mAbs: 79%
[21]
  % Wild type binding of mAbs: 94%
[22]
  % Wild type binding of mAbs: 88%
[23]
  % Wild type binding of mAbs: 69%
[24]
  % Wild type binding of mAbs: 65%
[25]
  % Wild type binding of mAbs: 89%
[26]
  % Wild type binding of mAbs: 0%

## anti-hIFNAR1 monoclonal antibody 5A8 (hybridoma ATCC HB 12129)
[1]
  EC50 of mAb neutralizing the anti-viral cytopathic effect of 10 units/ml IFNα1 on A549 cells (EMC virus): > 30 µg/mL
  EC50 of mAb neutralizing the anti-viral cytopathic effect of 10 units/ml IFNα2/1 on A549 cells (EMC virus): > 30 µg/mL
  EC50 of mAb neutralizing the anti-viral cytopathic effect of 10 units/ml IFNα2 on A549 cells (EMC virus): > 30 µg/mL
  EC50 of mAb neutralizing the anti-viral cytopathic effect of 10 units/ml IFNα5 on A549 cells (EMC virus): > 30 µg/mL
  EC50 of mAb neutralizing the anti-viral cytopathic effect of 10 units/ml IFNα8 on A549 cells (EMC virus): > 30 µg/mL
  EC50 of mAb neutralizing the anti-viral cytopathic effect of 10 units/ml IFNβ on A549 cells (EMC virus): > 30 µg/mL
[4]
  Kd: 0.174 nM
[5]
  % Wild type binding of mAbs: 110%
[6]
  % Wild type binding of mAbs: 83%
[7]
  % Wild type binding of mAbs: 67%
[8]
  % Wild type binding of mAbs: 109%
[9]
  % Wild type binding of mAbs: 34%
[10]
  % Wild type binding of mAbs: 80%
[11]
  % Wild type binding of mAbs: 100%
[12]
  % Wild type binding of mAbs: 110%
[13]
  % Wild type binding of mAbs: 75%
[14]
  % Wild type binding of mAbs: 81%
[15]
  % Wild type binding of mAbs: 70%
[16]
  % Wild type binding of mAbs: 61%
[17]
  % Wild type binding of mAbs: 66%
[18]
  % Wild type binding of mAbs: 72%
[19]
  % Wild type binding of mAbs: 91%
[20]
  % Wild type binding of mAbs: 83%
[21]
  % Wild type binding of mAbs: 99%
[22]
  % Wild type binding of mAbs: 93%
[23]
  % Wild type binding of mAbs: 71%
[24]
  % Wild type binding of mAbs: 82%
[25]
  % Wild type binding of mAbs: 110%
[26]
  % Wild type binding of mAbs: 84%
